Bridges are numbered along the chain shown (N, C = ends). [ ]: non-standard residue; d: D form. pY = N[C@@H](Cc1ccc(OP(=O)(O)O)cc1)C(=O)O; R8 = C=CCCCCCC[C@@](C)(N)C(=O)O; hLeu = CC(C)CC[C@H](N)C(=O)O; S5 = C=CCCC[C@](C)(N)C(=O)O; Cou6 = not defined here; Cou8 = not defined here; βAla = NCCC(=O)O
T1: MDMX (In-house, 40 kD), O15151
T1 chain: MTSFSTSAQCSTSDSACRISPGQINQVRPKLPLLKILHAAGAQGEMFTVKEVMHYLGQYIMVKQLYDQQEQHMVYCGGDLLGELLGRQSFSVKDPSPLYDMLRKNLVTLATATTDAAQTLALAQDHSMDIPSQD

T2: MDMX (In-house, 40 kD) (UniProt O15151)
T2 sequence (looked up): T1 chain


How the values were obtained:
[1] = target: T1, MDMX (In-house, 40 kD), O15151; assay: competitive FP vs FAM-labelled linear peptide; grade + = greater than 1000 nM; conditions: remark: other sources report otherwise
MDM2 (In-house, 41 kD) = MDM2 (In-house, 41 kD) (UniProt Q00987); assay: competitive fluorescence polarization, MDM2 with FAM-labeled linear peptide; graded scale of paragraph 458
MDMX (In-house, 40 kD) = target: T2, MDMX (In-house, 40 kD); assay: competitive fluorescence polarization, MDMX with FAM-labeled linear peptide; graded scale of paragraph 458
[2] = target: MDM2 (In-house, 41 kD), Q00987; assay: competitive FP vs FAM-labelled linear peptide; grade + = greater than 1000 nM; conditions: remark: other sources report otherwise
Sequence of MDM2 (In-house, 41 kD), Q00987 (Q00987 1-138 limits assumed): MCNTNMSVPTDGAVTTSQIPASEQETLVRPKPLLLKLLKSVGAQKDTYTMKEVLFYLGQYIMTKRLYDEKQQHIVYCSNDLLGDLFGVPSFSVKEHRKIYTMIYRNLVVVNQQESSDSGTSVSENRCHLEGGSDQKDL

Sequence of MDM2 (In-house, 41 kD) (Q00987 1-138 limits assumed): as above

Binder | IC50 [1] [nM] | Ki [1] [nM] | Ki (MDM2 (In-house, 41 kD)) [nM] | Ki (MDMX (In-house, 40 kD)) [nM] | Ki [2] [nM]
Cou8-[βAla]LTF[R8]EYWAQ[hLeu][S5]SAA-NH2 (staple 5-12; reading uncertain) [SP447] | > 1000 | > 1000 |  |  | 
Ac-LTF[R8]E[pY]WAQL[S5]AAAAA[dA]-NH2 (staple 4-11) [peptidomimetic macrocycle SP615, Ac-LTF$r8EpYWAQL$AAAAAa-NH2] |  |  | < 10 | < 10 | 
Ac-LTA[R8]EYWAQL[S5]AAAAA[dA]-NH2 (staple 4-11) [SP560] |  | > 1000 |  |  | > 1000
Cou6-[βAla]LTF[R8]EYWAQ[hLeu][S5]SAA-NH2 (staple 5-12; reading uncertain) [SP446] | > 1000 | > 1000 |  |  | 

— patent US8927500
